The record followed here is paper PMC5397151 (Nucleic Acids Research, 2017).

Series [1] has as its system pyRbkR. Kind of series: HPLC end-point riboflavin kinase assay, FMN detected at […] nm. Type of series: biochemical, Pyrobaculum yellowstonensis. As to conditions: read-out: apparent Km; saturating CTP (0.2 mM), 5 mM MgCl2, 0.1 M NaCl, HEPES pH 8, 60 °C.
Series [2] concerns the molecule itself. The experiment in a line: crystal structure.
Series [3] addresses T1, taRbkR (Thermoplasma acidophilum, UniProt Q9HJA6 1-220).
T1 sequence: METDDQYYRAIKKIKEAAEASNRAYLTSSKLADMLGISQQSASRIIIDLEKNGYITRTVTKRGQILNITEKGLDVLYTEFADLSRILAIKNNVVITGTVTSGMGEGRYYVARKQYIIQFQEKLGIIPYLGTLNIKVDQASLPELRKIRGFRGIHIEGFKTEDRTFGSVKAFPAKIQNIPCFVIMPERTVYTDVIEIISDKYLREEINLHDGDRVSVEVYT
Kind of series: X-ray crystallography 1.85 A.

Series [4] addresses T1, taRbkR. The experiment in a line: fluorescence polarization.

A word on the Km: it is the concentration of substrate that gives half-maximal velocity. For `Cc1cc2nc3c(=O)[nH]c(=O)nc-3n(C[C@H](O)[C@H](O)[C@H](O)CO)c2cc1C` [riboflavin], the Km in series [1] was found to be 73 ± 26 µM.

B1: RbkR protein from Thermoplasma acidophilum (bifunctional riboflavin kinase/regulator) (natural protein)
chain: ETDDQYYRAIKKIKEAAEASNRAYLTSSKLADMLGISQQSASRIIIDLEKNGYITRTVTKRGQILNITEKGLDVLYTEFADLSRILAIKNNVVITGTVTSGMGEGRYYVARKQYIIQFQEKLGIIPYLGTLNIKVDQASLPELRKIRGFRGIHIEGFKTEDRTFGSVKAFPAKIQNIPCFVIMPERTVYTDVIEIISDKYLREEINLHDGDRVSVEVYT
Usually stoichiometry N stands for the number of molecules, sites or subunits per partner or assembly. As to B1, the “stoichiometry N” value in series [2] was found to be 2.

B2: ta ribT operator crystal duplex (dsDNA)
DNA 1: ATTACTAATTCACGAGTAA
DNA 2: TTTACTCGTGAATTAGTAA
In the case of B2, the binding result in series [3] was “binds”.

B3: ta ribT 35 bp (dsDNA)
DNA 1: TATGCTACTAATTCACGAGTAATTACTCAAATATT
DNA 2: AATATTTGAGTAATTACTCGTGAATTAGTAGCATA
For the molecule B3, the “apparent K (half saturation)” value in series [4] was roughly 16 nM.
